We go through 6 molecules from patent publication US7265263B1, “Potato transcription factors, methods of use thereof, and a method for enhancing tuber development” (Iowa State University Research Foundation, Inc., priority 2002, dated 2007).

Entries after “also recorded” stand apart in the source; their conditions may differ.

Test [1] relates to POTH1 overexpression lines. The test can be described thus: Exogenous GA3 application to POTH1 overexpression lines. In kind it is in vivo, Solanum tuberosum. From the text: Many of the traits of the phenotypes observed in POTH1 overexpression lines were similar to GA-deficient mutants. These similarities included decreased plant height, decreased internode length, and darker green coloration of the leaves (van den Berg et al., “Morphology and [^14C]Gibberellin A12 Metabolism in Wild-Type and Dwarf Solanum Tuberosum ssp. Andigena Grown Under Long and Short Photoperiods,” J. Plant Physiol. 146:467-473 (1995), which is hereby incorporated by reference in its entirety). Because of this, exogenous GA3 was applied to determine whether the overexpression lines were responsive to GA treatment. The shoot apex of overexpression lines was sprayed to runoff with 10 μM GA3 in 0.002% (v/v) ethanol or with 0.002% (v/v) ethanol alone. […] Palisade and spongy parenchyma organization is partially rescued in leaves from line 15 treated with GA3 (FIG. 5G). The GA3-treated leaf (FIG. 5J) of the severe mutant, line 15, is more similar in morphology to the wild-type leaf (FIG. 5K). Leaflets are more ovate in form rather than the typical mouse-ear shape. Wild-type leaves have a prominent mid-vein (FIG. 5L), whereas the mid-vein (FIG. 5M, arrow) is more prominent in the mutant GA3-treated leaf than in the mutant untreated leaf (FIG. 5N). […]

A further test has as its system POTH1. Briefly: Yeast two-hybrid interaction with POTH1. The conditions noted are these: nutritional selection and lacZ activation, yeast AH109. The test is classed as binding, Solanum tuberosum. From the text:
The Matchmaker two-hybrid system (Clontech, Calif.) was used for the yeast two-hybrid screen. Yeast transformation and plasmid rescue into DH5-α E. coli cells were according to the manufacturer's instructions. Full-length POTH1 was cloned into the pBridge (Clontech, Calif.) vector and used as bait to screen the potato (S. tuberosum ‘Desireé’) stolon cDNA library in pAD-GAL4-2.1 (Stratagene, Calif.). Positive interactions were confirmed by cotransforming yeast strain AH109 with each purified pAD plasmid and pBridge: POTH1 and plating on -leucine/-tryptophan (transformation control) and -leucine/-tryptophan/-histidine/-adenine (selection) nutrient medium. Induction of the AH109 reporter gene, lacZ, was measured with a yeast β-galactosidase assay kit (Pierce Chemicals). β-galactosidase activity (FIG. 9B) was determined from a known density of yeast cells and calculated as 1000×OD420/time of color reaction (minutes)×volume of yeast culture (ml)×OD600.
The StBEL-05 deletion constructs were amplified by PCR, then cloned into the vector, pGAD, in-frame with the GAL4 activation domain. POTH1 deletion constructs were amplified by PCR, and cloned into pBridge (Clontech) in-frame with the GAL4 binding domain. Sequencing of selected cDNAs and constructs was performed at the Iowa State University DNA Facility. For deletion analysis, modified constructs of POTH1 were cloned into the pBridge vector for fusion with the DNA-binding domain of GAL4 (FIG. 10A). For StBEL-05, constructs were cloned into the pGAD vector for fusion with the activating domain of GAL4 (FIG. 10B). Deletion constructs were made from both the amino and carboxy termini. These mutants were then tested for interaction in the yeast two-hybrid system by cotransforming into yeast strain AH109 with the corresponding full-length partner (StBEL-05 in pGAL4 or POTH1 in pBridge). All constructs were sequenced to verify that they were in-frame. Positive interactions were verified for lacZ induction by using a β-galactosidase assay (Pierce Chemical Company). For POTH1, seven deletion constructs were tested (FIG. 10A). For the BEL TFs, a fusion construct of StBEL-05 (653 aa of StBEL-05 sequence) and nine deletion constructs were tested (FIG. 10B).

Sequence of POTH1 (as listed by the source): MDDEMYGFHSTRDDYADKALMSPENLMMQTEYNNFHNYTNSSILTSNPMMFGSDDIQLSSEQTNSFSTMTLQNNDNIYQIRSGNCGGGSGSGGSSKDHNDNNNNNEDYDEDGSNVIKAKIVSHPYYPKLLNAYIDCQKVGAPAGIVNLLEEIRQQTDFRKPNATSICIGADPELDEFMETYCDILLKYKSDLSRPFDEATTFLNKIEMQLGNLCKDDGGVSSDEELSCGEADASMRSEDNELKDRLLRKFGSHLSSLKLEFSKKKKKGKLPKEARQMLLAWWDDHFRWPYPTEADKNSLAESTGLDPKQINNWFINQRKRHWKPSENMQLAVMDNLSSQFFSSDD

As to `C=C1C[C@]23C[C@@]1(O)CC[C@H]2[C@@]12C=C[C@H](O)[C@@](C)(C(=O)O1)[C@H]2[C@@H]3C(=O)O` [GA3], the “effect on leaf morphology” value in test [1] (10 μM GA3 sprayed on shoot apex) was “partially rescued the leaf morphology of both severe and intermediate phenotypes; also recorded: partial reversal of the leaf phenotype”. Besides, the “effect on dwarf phenotype” value in test [1] (GA3 application) is reported as “completely rescued the dwarf phenotype”.

B1: StBEL-11: BEL transcription factor from Solanum tuberosum, SEQ ID NO:4 (protein, listed as Solanum tuberosum)
chain: MTFRSSLPLDLREISTTNHQVGILSSSPLPSPGTNTNNINHTRGLGASSSFSISNGMILGSKYLKVAQDLLDEVVNVGKNIKLSDGLESGAKEKHKLDNELISLASDDVESSSQKNSGVELTTAQRQELQMKKAKLVSMLDEVDQRYRQYHHQMQMIATSFEQTTGIGSSKSYTQLALHTISKQFRCLKDAISGQIKDTSKTLGEEENIGGKIEGSKLKFVDHHLRQQRALQQLGMMQTNAWKPQRGLPERAVSVLRAWLFEHFLHPYPKDSDKIILAKQTGLTRSQVSNWFINARVRLWKPMVEEMYMEEVKKNNQEQNIEPNNNEIVGSKSSVPQEKLPISSNIIHNASPNDISTSTISTSPTGGGGSIPTQTVAGFSFIRSLNMENIDDQRNNKKARNEMQNCSTSTILSMEREIINKVVQDETIKSEKFNNTQTRECYSLMTPNYTMDDQFGTRFNNQNHEQLATTTTFHQGNGHVSLTLGLPPNSENQHNYIGLENHYNQPTHHPNISYENIDFQSGKRYATQLLQDFVS
With B1, in the test on POTH1, the “interaction with POTH1” value is on record as “showed selective interaction”.

B2: StBEL-14: BEL transcription factor from Solanum tuberosum, SEQ ID NO:8 (protein, listed as Solanum tuberosum)
chain: MVNHQLQNFETNPEMYNLSSTTSSMDQMIGFPPNNNNPHHVLWKGNFPNKINGVDDDDHGPSSSKNIISEQFYQHGSHENMLTTTTTHHDDHQGSWHHDNNRTLLVDDPSMRCVFPCEGNERPSHGLSLSLCSSNPSSIGLQSFELRHQDLQQGLIHDGFLGKSTNIQQGYFHHHHQVRDSKYLGPAQELLSEFCSLGIKKNNDHSSSKVLLKQHESTASTSKKQLLQSLDLLELQKRKTKLLQMLEEVDRRYKHYCDQMKAVVSSFEAVAGNGAATVYSALASRAMSRHFRCLRDGIVAQIKATKMAMGEKDSTSTLIPGSTRGETPRLRLLDQTLRQQKAFQQMNMMETHPWRPQRGLPERSVSVLRAWLFEHFLHPYPSDVDKHILARQTGLSRSQVSNWFINARVRLWKPMVEEMYLEETKEEENVGSPDGSKALIDDMTIHQSHIDHHQADQKPNLVRIDSECISSIINHQPHEKNDQNYGVIRGGDQSFGAIELDFSTNIAYGTSGGDHHHHGGGVSLTLGLQQHGGSGGSSMGLTTFSSQPSHNQSSLFYPRDDDQVQYSSLLDSENQNLPYRNLDGGTTSS
Turning to B2, the “interaction with POTH1” value with POTH1 is given as “showed selective interaction”.

B3: StBEL-22: BEL transcription factor from Solanum tuberosum, SEQ ID NO:10 (protein, listed as Solanum tuberosum)
chain: TSVYETAGLLSEMFNFQTTSTAATELLQNQLSNNYRHPNQQPHHQPPTREWFGNRQEIVVGGSLQVTFGDTKDDVNAKVLLSNRDSVTDYYQRQHNQVPSINTAESMQLFLMNPQPSSPSQSTPSTLHQGFSSPVGGHFSQFMCGGASTSSNPIGGVNVIDQGQGLSLSLSSTLQHLEASKVEDLRMNSGGEMLFFNQESQNHHNIGFGSSLGLVNVLRNSKYVKATQELLEEFCCVGKGQLFKKINKVSRNNNTSTSPIINPSGSNNNNSSSSKAIIPPNLSTAERLDHQRRKVKLLSMLDEVEKRYNHYCEQMQMVVNSFDLVMGFGAAVPYTALAQKAMSRHFKCLKDGVAAQLKKTCEALGEKDASSSSGLTKGETPRLKVLEQSLRQQRAFQQMGMMEQEAWRPQRGLPERSVNILRAWLFEHFLHPYPSDADKHLLARQTGLSRNQVANWFINARVRLWKPMVEEMYQREVNEDDVDDMQENQNSTNTQIPTPNIIITTNSNITETKSAATATIASDKKPQINVSEIDPSIVAMNTHYSSSMPTQLTNFPTIQDESDHILYRRSGAEYGTTNMASNSEIGSNMITFGTTTASDVSLTLGLRHAGNLPENTHFSG
For the molecule B3, the “interaction with POTH1” value in the test with POTH1 is given as “showed selective interaction”.

B4: StBEL-29: BEL transcription factor from Solanum tuberosum, SEQ ID NO:12 (protein, listed as Solanum tuberosum)
chain: QGLSLSLSSSQQPGFGNFTAARELVSSPSGSASASGIQQQQQQQQSISSVPLSSKYMKAAQELLDEVVNVGKSMKSTNSTDVVVNNDVKKSKNMGDMDGQLDGVGADKDGAPTTELSTGERQEIQMKKAKLVNMLDEVEQRYRHYHHQMQSVIHWLEQAAGIGSAKTYTALALQTISKQFRCLKDAIIGQIRSASQTLGEEDSLGGKIEGSRLKFVDNQLRQQRALQQLGMIQHNAWRPQRGLPERAVSVLRAWLFEHFLHPYPKDSDKMMLAKQTGLTRSQVSNWFINARVRLWKPMVEEMYLEEIKEHEQNGLGQEKTSKLGEQNEDSTTSRSIATQDKSPGSDSQNKSFVSKQDNHLPQHNPASPMPDVQRHFHTPIGMTIRNQSAGFNLIGSPEIESINITQGSPKKPRNNEMLHSPNSIPSINMDVKPNEEQMSMKFGDDRQDRDGFSLMGGPMNFMGGFGAYPIGEIARFSTEQFSAPYSTSGTVSLTLGLPHNENLSMSATHHSFLPIPTQNIQIGSEPNHEFGSLNTPTSAHSTSSVYETFNIQNRKRFAAPLLPDFVA
Take B4: in the test on POTH1, the “interaction with POTH1” value is “showed selective interaction”.

B5: pAD5-9: StBEL-05 deletion construct, aa 1 through 315 (protein)
chain: MNPNNYMQGYTTSDTQQQQQLLFLNSSPAASNALCHANIQHAPLQQQHFVGVPLPAVSLHDQINHHGLLQRMWNNQDQSQQVIVPSSTGVSATSCGGITTDLASQLAFQRPIPTPQHRQQQQQQGGLSLSLSPQLQQQISFNNNISSSSPRTNNVTIRGTLDGSSSNMVLGSKYLKAAQELLDEVVNIVGKSIKGDDQKKDNSMNKESMPLASDVNTNSSGGGESSSRQKNEVAVELTTAQRQELQMKKAKLLAMLEEVEQRYRQYHHQMQIIVLSFEQVAGIGSAKSYTQLALHAISKQFRCLKDAIAEQVKAT
modifications: left off: large carriers
For B5, in the test on POTH1, the “interaction with POTH1” value is on record as “demonstrated an interaction; also recorded: interaction with POTH1”.
